Reference: article PMC8465315, “Molecular Umbrella as a Nanocarrier for Antifungals” (Molecules, 2021)
Read-outs that look alike come from different tables or passages of the source.

Tests used:
[1] = test system: Candida spp.; assay: Antifungal in vitro activity, summary statements over the Candida strains tested; type: cell-based
Experimental: The antifungal in vitro activity of conjugates 24a–d and 35 was determined by the serial two-fold dilution method, using the 96-well microtiter plates, in two growth media, RPMI-1640 and YNB-AS, against seven yeast species from the Candida genus. The MIC50 and MIC90 values, i.e., concentrations at which cell growth was inhibited in 50% and 90%, respectively, were measured and compared to those of the intact cispentacin. The concentration values presented in Table 1 and Table 2 are expressed in mM units to allow the comparison of the compounds’ effectiveness at the molecular level. For data expressed in μg mL^−1 units, such comparison is not possible, since the molecular masses of conjugates (≈1755–2114 D range) are 14–16-fold higher than that of cispentacin (128.3 D).
Susceptibility testing was performed in two growth media: (a) RPMI-1640 w/o sodium bicarbonate, with L-glutamine + 2% glucose + 3.45% MOPS, pH adjusted to 7.0; (b) YNB-AS—Yeast Nitrogen Base w/o amino acids (contains ammonium sulfate 5 g L^−1) + 2% glucose. The in vitro growth inhibitory activity of antifungals was quantified by determination of MIC50 and MIC90 values by the serial two-fold dilution method, using the 96-well microtiter plates. Serial dilutions of cispentacin and its conjugates were prepared in the 4–0.015 mM range.
Conditions of the RPMI-1640-based assay were the same as outlined in the CLSI recommendations except for the end-point readout that was done by spectrophotometric determination of cell density at 660 nm. Turbidity in individual wells was measured with a microplate reader (Victor^3; Perkin Elmer). The 96-well microtiter plates were also used for the determination of in vitro growth inhibitory activity in YNB-AS medium. Individual wells were inoculated with 5 × 10^3 Candida cells mL^−1 from the overnight culture in YPD medium. The plates were incubated at 37 °C for 24 h, and then, turbidity was measured with a microplate reader at 660 nm, as described above for the RPMI-1640-based assay.
Values of MIC50 and MIC90 were read from the graphs of A660 vs. drug concentration and corresponded to the interpolated values of drug concentration at which A660 was 50% or 10% of that measured for the drug-free control.

[2] = test system: pig liver esterase; assay: HPLC-MS analysis of conjugate cleavage, model system with pig liver esterase; type: in vitro ADME; settings: pig liver esterase 5 mg mL^−1; conjugate 150 µM; 30 °C; 0, 30, 120 min
Experimental: (§1) Conjugates 24a–d, containing the TML system, were tested for susceptibility to enzymatic cleavage in the model system with pig liver esterase and in cell-free extract prepared from C. albicans cells. Conjugate 35 containing the o-dithiobenzylcarbamoyl linker was tested in the model system with glutathione and in C. albicans cell-free extract.
(§2) Analysis of cleavage of the conjugates was performed in two experimental systems: (A) model system, in the presence of pig liver esterase or glutathione, reduced; (B) in C. albicans cell-free extract.
Mixtures containing a given conjugate at the initial concentration of 150 µM and pig liver esterase, 5 mg mL^−1 or 10 mM glutathione, reduced, in a total volume of 200 μL were incubated at 30 °C. Samples of 50 μL were collected at zero time, after 30 min, and after 120 min and subjected to HPLC-MS analysis.
(§3) The HPLC-MS system consisted of a liquid chromatograph, a degasser, a binary pomp, an auto-sampler, and a column oven, which was combined with an MS detector with an electrospray source (AJS ESI) and quadrupole analyzer (1260 Infinity II and 6470 Triple Quad LC/MS, Agilent Technologies, Waldbronn, Germany). The ChemStation software was used to control the LC-MS system and for data processing.
(§4) Chromatographic separations were performed on an Eclipse XDB-C18 column (150 mm × 4.6 mm, 5 μm). For the separation, a gradient of mobile phase A (H2O + 0.01% HCOOH) and mobile phase B (100% methanol) was used. The gradient profile was set as follows: 0 min—95% effluent A, 8 min—70% effluent A, 11 min—50% effluent A, 12 min—95% effluent A, 17 min—95% effluent A. The flow rate was 1 mL min^−1, the column temperature was 25 °C, and the injection volume was 20 μL.
(§5) The electrospray source operated in a negative mode. The data were collected in a MS scanning mode (MS2 SCAN) with the range 150–700 (m/z).

[3] = test system: C. albicans cell-free extract; type: in vitro ADME, Candida albicans; settings: conjugate 150 µM, 30 °C, 0, 30, 120 min
Experimental: as §1
C. albicans cells were harvested from the culture in YPD medium in the logarithmic phase of growth and washed with PBS, pH 7.4. Then, cells were suspended in a minimal amount of PBS to an optical density OD660 ≈ 1.5. A sample of 1.5 mL of the cell suspension was put into the Lysing Matrix D, 2 mL tubes containing 1.4 mm ceramic spheres (MP Biomedicals). The tubes were vortexed 5 times for 2 min intervals, with 2 min breaks for cooling in the ice/water bath. Finally, the mixtures were centrifuged (10,000× g, 4 °C, 20 min), and the supernatant was pushed through the syringe filter, 0.22 μm pore size, to remove unbroken cells. The thus-obtained cell-free extract was kept at 4 °C and used no later than 5 h after preparation.
as §2
A given conjugate was dissolved in 4 mL of C. albicans cell-free extract to the initial concentration of 150 µM. Mixtures were incubated at 30 °C. Samples of 1 mL were collected at zero time, after 30 min, and after 120 min. The collected samples were immediately de-proteinized by centrifugation (4 °C, 5000× g, 10 min) in Amicon® Ultra-4 Centrifugal Filter Units, 3 kDa cutoff limit. Samples of 50 μL were collected from the filtrates and subjected to HPLC-MS analysis.
as §3, §4, §5

Row | SMILES | antifungal activity ([1]; RPMI-1640 medium) | antifungal activity ([1]; both growth media (RPMI-1640 and YNB-AS)) | antifungal activity ([1]; both growth media (RPMI-1640 and YNB-AS), listed as 26d) | cleavage / release of cispentacin (HPLC-MS) [2] | cleavage / release of cispentacin or its derivative (HPLC-MS) [3] | cleavage / release of cispentacin or its derivative (HPLC-MS) ([3]; listed as 26d)
1 | Cc1cc(C)c(C(C)(C)CC(=O)N[C@H]2CCC[C@H]2C(=O)O)c(OC(=O)CCCCCCC(=O)N(CCCCNC(=O)CC[C@@H](C)[C@H]2CC[C@H]3[C@@H]4[C@H](OS(=O)(=O)O)C[C@@H]5C[C@H](OS(=O)(=O)O)CC[C@]5(C)[C@H]4C[C@H](OS(=O)(=O)O)[C@]23C)CCCNC(=O)CC[C@@H](C)[C@H]2CC[C@H]3[C@@H]4[C@H](OS(=O)(=O)O)C[C@@H]5C[C@H](OS(=O)(=O)O)CC[C@]5(C)[C@H]4C[C@H](OS(=O)(=O)O)[C@]23C)c1 [24d] | devoid of antifungal activity | inactive in both media | not active as an antifungal | Presence of the released cispentacin was confirmed | the product of a possible cleavage, with RT similar to that of cispentacin but with 17 D higher MW, was formed | found cleavable in the cell-free extract
2 | Cc1cc(C)c(C(C)(C)CC(=O)N[C@H]2CCC[C@H]2C(=O)O)c(OC(=O)CCC(=O)N(CCCCNC(=O)CC[C@@H](C)[C@H]2CC[C@H]3[C@@H]4CC[C@@H]5C[C@H](OS(=O)(=O)O)CC[C@]5(C)[C@H]4C[C@H](OS(=O)(=O)O)[C@]23C)CCCNC(=O)CC[C@@H](C)[C@H]2CC[C@H]3[C@@H]4CC[C@@H]5C[C@H](OS(=O)(=O)O)CC[C@]5(C)[C@H]4C[C@H](OS(=O)(=O)O)[C@]23C)c1 [24a] | devoid of antifungal activity |  |  | resistant to enzymatic cleavage | Neither cispentacin nor the m/z 145.1/145.2 compound was found | 
3 | Cc1cc(C)c(C(C)(C)CC(=O)N[C@H]2CCC[C@H]2C(=O)O)c(OC(=O)CCCCCC(=O)N(CCCCNC(=O)CC[C@@H](C)[C@H]2CC[C@H]3[C@@H]4[C@H](OS(=O)(=O)O)C[C@@H]5C[C@H](OS(=O)(=O)O)CC[C@]5(C)[C@H]4C[C@H](OS(=O)(=O)O)[C@]23C)CCCNC(=O)CC[C@@H](C)[C@H]2CC[C@H]3[C@@H]4[C@H](OS(=O)(=O)O)C[C@@H]5C[C@H](OS(=O)(=O)O)CC[C@]5(C)[C@H]4C[C@H](OS(=O)(=O)O)[C@]23C)c1 [24c] |  |  |  | Presence of the released cispentacin was confirmed | the product of a possible cleavage, with RT similar to that of cispentacin but with 17 D higher MW, was formed | 
